Source: patent US20120244615A1

Target: tetrodotoxin (TTX)-resistant variant of sodium channel Nav1.6
Assay: cell-based or functional assay

**Q.** For “full-length FHF2A protein (from UniProt Q92913 1-245)”, which channels not recovering from inactivation within 20 msec (two-pulse whole cell voltage clamp, FIG. 2) (fraction of channels) is on record?
**A.** 0.33

**Q.** What about the percent of channels undergoing long-term inactivation (voltage dependence protocol, FIG. 4) of the same substance?
**A.** 35 to 40%
